According to the DeepSol protein solubility set:

Assay: soluble on expression in E. coli; label from the status in PepcDB or PDB records

Sequence: MAEIDYKKVTGMIHSTESFGSVDGPGIRFIIFMQGCKMRCQYCHNPDTWEMETNNSKERTVEDVLKEALRYKHFWGKDGGITVSGGEAMLQIDFITALFIEAKKLGIHTTLDTCGFAYRATPEYHAILEKLLDVTDLVLLDLKEIDSEQHKIVTRQSNKNILQFARYLSDRGTPVWIRHVLVPGLTD
- soluble on expression in E. coli: not soluble

Sequence: GPGSMLSERACLHPGRALKCERFLAIFPQNVKEMLLQNPLFVQNSRVAERSIIRHNQFLLACYMTYLILRNDENAEGQALKYINFMPRNEGNFEQLISNMNGVLDGAAACQSAQAALSLQFGITQAEVRPLLQWSMAMIFSRMAPIDHRWTLQCAFKNTPFAPAFDIRGPDDDANMVKEPIAFLCPVIDMCNHSDHENVALMVPQRTDSSHESVICLRSLRDIDRGEELTMTYGGSPTELRVIWGMQRVL
- soluble on expression in E. coli: not soluble

Sequence: MICSLFVDKVNKETYLCAMKQEYISRIRSFNRYYTKILGILNKYYLGSELGLPEVRIIQDVYLHPDRSSKDISNELNMDKGLLSRLLKQLEQKEYIFRKSTEKDNRMGLVNLTEKGCEVYYRLNTAANQSIERIFSHLEDRQLQRLVHCMDSIYKIINSVETGLTVDNNEPIVIRPIEESDNASIASVLRASVEEHGAPKVGTFYDDPHTDRMFQTFNIKGAEYWIVESNGVILGGGGFYPTKGLPHGYAELSKFHFRPELRGRGIGKRLLQFIEQRAVSAGYVYMYIVSYHQFGNAVSMYEKYGYEHIDNALDQSGLYQDAPFHMVKAL
- soluble on expression in E. coli: not soluble

Sequence: MNIKQFNEHITSLFGEHLHKYGDDEYGFTHISKDEFHKIGYTTNLTLETIEEAYRNGVDMIVTHHAPWSFLFGMEEACIEKLKQYEMNHFWVHLPLDFVKFGTCTSLFNGIGIDTILEYSTYEEEELPGIGEYKEAIPFSNLVGKLEERMEEKVKSWRNHDKPVKRIAILTGAGNNTNLIERALEKGCDTYITGEKTLYTVQHAKFKGINLIVGSHTFTEVFGVESLAHKLKERDNSIEITRLNEEHLELEHHHHHH
- soluble on expression in E. coli: not soluble

Sequence: MSTVGGIEQLIPDSVSTSFIETVNGSHQFTIQGYSLAKGMSPGKFIQSDIFSVGGYDWAIYFYPDGKNPEDQSSYISLFIALASDSNDIRALFELTLMDQSGKGKHKVHSHFDRALEGGPYTLKYKGSMWGYKRFFKRSALETSDYLKDDCLVINCTVGVVRARLEGPKQYGIVLPLSNMGQGLKDLLDSEVGCDIAFQVGDETYKAHKLILAARSPVFRAQFFGPIGNNNVDRIVIDDIEPSIFKAMLSFIYTDVLPNVHEITGSTSASSFTNMIQHLLAAADLYDLARLKILCEVLLCEKLDVDNVATTLALAEQHQFLQLKAFCLEFVASPANLGAVMKSEGFKHLKQSCPTLLSELLNTVAAADKSSTSGQSNKKRSASSVLGCDTTNVRQLRRRTRKEVRAVS
- soluble on expression in E. coli: not soluble

Sequence: MSLAATALLEAGLARVLFYPTLLYTLFRGKVPGRAHRDWYHRIDPTVLLGALPLRSLTRQLVQDENVRGVITMNEEYETRFLCNSSQEWKRLGVEQLRLSTVDMTGIPTLDNLQKGVQFALKYQSLGQCVYVHCKAGRSRSATMVAAYLIQVHKWSPEEAVRAIAKIRSYIHIRPGQLDVLKEFHKQITARATKDGTFVISKTEGHHHHHH
- soluble on expression in E. coli: soluble

Sequence: MGSDKIHHHHHHMENVREILQELMSKRKLDQRFNNVMKSVYSDPEVISFCEEHQDELSKEAIERGAAKLYEFVSERNKIKNNQATFLPGYQPELVLSNHLIDIEYVPTKQTHLLEQERHRKALVKSISMPKLIRHASLEGYYQEPERTDALAKTLAFVNEYLERPQDWHKGLYLTGSFGVGKTYLMGAMGNALADEGYSTTIVHFPSLAVELKNAIGSSNTIQTKIDAIKKAPILVIDDIGADSISSWIRDDVLGVILEYRMQEELPTFFTSNFSMDQLEREHLTVNQRGEAEPLKAKRLMERIKFLSEEVSMTGKNHRQD
- soluble on expression in E. coli: not soluble

Sequence: MVALSNALSRVFGSLAGYKFPSFIQKGINALYVKIFKIDLSEFEPLENYRSLNALFTRSLKKERPFDKSPNICIAPCDALITECAFLDNDSALQIKGMPYKAHELVGEINPLSPSFFYANFYLSPKDYHHYHAPCDLEILEARYFAGKLLPVNKPSLHKNNNLFVGNERVTLVAKDIQGNRLYFVAVGALNVGKMRFNFDKNIQTNAKARFTQTYSYNPPIKVKKGDNLGNFEMGSTIVLFIQNTAFKDLKEKNVKFGESIGEFHANLEHHHHHH
- soluble on expression in E. coli: soluble

Sequence: MSTMQTELIIVSEYCQKCHIEPSFIEMLEEGGLINVRTEAGKHYLLVSELPNVERYSRMYYDLSINMEGIDAIHHMLERMDDMRREITSLRKQLLLFREREIEEADW
- soluble on expression in E. coli: not soluble

Sequence: MGSDKIHHHHHHMAKVPAKAKPEHALLAVPRELMPRDLRVSLHDYTRGGTDRFLTNGQGAKQDMTGFEDQYVNIIDYIVRITHRIWEEKDIGYIYDTYAHNCRVWDDVGLQYGRDKIVADTTHTINAFPDVKLYADEVIWAGDAEHGFHTSHRTVIKGTNTGFSRWGPPTMRPVNVWCIANCVARENEIFEEHVQYNLGAMLQQLGFDLRALAATARAIGIETDPLFAASGRTRVPGQGKPAHGTPRGDGPFDVADFLCSMTQDVWNRRMLSRLTRAYAPALNYQGPTNRSYRSLAQYQSALLSLLAMFPDLSFEPEALYYMEDGKGTTWSSLRWSATGSHGGFGPYGTPTGREVRIWGITQHKIEGETITEEWMQFNEFDLLRQLAPDPVV
- soluble on expression in E. coli: not soluble

Sequence: MGSDKIHHHHHHMQRRVPLSPDAAHCSSCMLGHVCVPVGMPANEVEKLDELVKERVRVERGKSLYELDDPLDAVYGVRYGSLKTQLEDSSGQLQITGFHLPGEIVGLDGMIESKHVSSAVALEDSEVCVIRLPEIDRVSTQLPSLQQQFRRLMSREITRSHQMLATVGAMRSEQRLAAFLLNLSQRYAALGYSSTEFVLRMSREEIGNYLGLTLETVSRLFSRFGREGLIRINQREVRLIDLPGLKQLIGQESC
- soluble on expression in E. coli: not soluble

Sequence: MNSVLSNIEKLDTYILRRNEYVAESKDEPNKLNTSRKLEVTTKKNQSNNKKRPPPINKARKSLPSIFRRAEENKDSAQIITPTGSKIIGSPLYKRSKSDSFFDHAFNFDKNLGKGSFGEVVAATCRSTSKKFAIKKIPFSKLSKDQYREAYGHMNIPCHPNIVRFHQAWIDKQILHIQLEMCDKSLAAYCHGIDWLEDKELWNVFLDILQGLGHLHNNFMLHNDIKPDNIFMTKNKVCKLGDFGLISDMRSEPINNSSNKHYQSEGDGKYCSKEAINGTLSIFSDIFSFGISILEVGTNIHLPSYGTGWEPIRKWEIPEEILEPMSDELRELVKQMMDKAPTRRPTCSELMKNHVVKEKLRIRKQEVEHIPSESQFQPISYLTTESPLGSRESSCSSIDFLDHFENAEKKTPFVSKLNFDLEDDEDEYEVFSPPRTPVKKSRYQQTMPEVSPPRKIQKLFQRKNLFDE
- soluble on expression in E. coli: not soluble

Sequence: MLEARDLYCERDERTLFRGLSFTVDAGEWVQVTGGNGAGKTTLLRLLTGLARPDGGEVYWQGEPLRRVRDSFHRSLLWIGHQPGIKTRLTARENLHFFHPGDGARLPEALAQAGLAGFEDVPVAQLSAGQQRRVALARLWLTRAALWVLDEPFTAIDVNGVARLTRRMAAHTAQGGMVILTTHQPLPGAADTVRRLALTGGGAGL
- soluble on expression in E. coli: not soluble

Sequence: MSLADIGSDHAYLPCYAVLNHKASGAIAGEITDGPFLSAKRQVEKSGLNSHISVRQGDGLEVIKKGEADAITIAGMGGALIAHILEAGKDKLTGKERLILQPNIHAVHIREWLYKERYALIDEVILEEDGKCYEVLVAEAGDRDAAYDGISLSAGMLVGPFLAKEKNAVFLKKWTQELQHTQSIYEQISQAADTEQNKQKLKELADRMELLKEVIDHGEGHHHHHH
- soluble on expression in E. coli: soluble

Sequence: MGSDKIHHHHHHMRDIHILHDLIKKQCPQIHQKRLNSLMVATESLLDGNQLSLTQLGRNITGSVAAKHNIKRIDRLLGNYHLAQDKITIYQWHARYLCGANPMPIILVDWSDVREQLRIMTLRASISVQGRSVTLYERTFLFEDYNAPRSHNAFLAELANVLPQGCCPLIVTDAGYRNTWFREVERYGWFWLGRVRGDVSFMHHGQTTWHSNKSLYSKANSTAKYIGNVQLARKSPLSCHLHLF
- soluble on expression in E. coli: not soluble

Sequence: MSLPHVILTVLSTRDATGYDITKEFSASIGYFWKASHQQVYRELNKMGEQGLVTCVLEPQEGKPDRKVYSITQAGRSALGEWFDQPTAHPTVRDEFSAKLMACSVQSAEPYRLQLAELVEESRKLVAHYQEIEAAYYANPAVLDKQQRLERLTLRRNLLVRQAWIQWADEVLAELNAMA
- soluble on expression in E. coli: soluble

Sequence: MSEEVWNGNQGILSVYVSKARDLPNLNKLDKQNVMLRLRIAHMTRASNTLHRAGQNPVFHYLEKFDITPEIKPLMYVEVYCDRRKKSPLPIGRCEIDLLNAIRADPKEGYCTWYELKRSGDEFAGTIFIELTFTPKVPRLNRDDLNKEMDRLDSSMAMRPIPPLPTESEYDYVHGSTMRQITPQCVSTSHEDKDEGQPYRNGNVFSMSSKSDTAVLANSNDPIILPPTFSASMGTTSTLETNDTAISNTSNTKFHFANLRKLKEKINIFKNPDSSTNNCQNESNKVDIEALQKAIGVTSLSYDEDDDDDDENDAFYSSSHRVSHNYNQPPLPPIPTRDDMSNYSSSRNTPLVRRDRPSRLDSSSPNSHPHPSGLNSPKLPPLPTTSNSNFNSRKNSMSPTRKRPPPRLS
- soluble on expression in E. coli: soluble

Sequence: MSLKGIVFGSGQIGSSVALNLVDGMDVTVADRDPTNLRKIQDNIGSRVSVIQVDALRDDIKHIISDYDIVVSALPGSVGFQFAKSIAPFGVRMIDISYYEDDVFLLDDVAKKSSSVIVPDIGFAPGISNVLVGHFSYELEDVKDVHIYVGGIPEKRIGGLDYVITWSVEGLLDEYTRPVHIVQNGSITQVEPLSGLEKINIQKYTDLEAFYTDGLRTLGKTIRASGSMWEKTVRYSGHAEKIRLLKDLGFFSRKKVKVGNSEIAPFDFTAEIFRNNLSMSGVKDVSLMYVKVTGTRNGDIVKHEASMVAPYDEKRKRSSMANVTSVPASATADFLSKNEIGKYGVVAPEILGKDENFYKQFINYLGQYGIIISEGHHHHHH
- soluble on expression in E. coli: not soluble

Sequence: MNYSLKQLKVFVTVAQEKSFSRAGERIGLSQSAVSHSVKELENHTGVRLLDRTTREVVLTDAGQQLALRLERLLDELNSTLRDTGRMGQQLSGKVRVAASQTISAHLIPQCIAESHRRYPDIQFVLHDRPQQWVMESIRQGDVDFGIVIDPGPVGDLQCEAILSEPFFLLCHRDSALAVEDYVPWQALQGAKLVLQDYASGSRPLIDAALARNGIQANIVQEIGHPATLFPMVAAGIGISILPALALPLPEGSPLVVKRITPVVERQLMLVRRKNRSLSTAAEALWDVVRDQGNALMAGREGDPLYQI
- soluble on expression in E. coli: soluble

Sequence: ATTGTQGYTVVKNDWKKAVKQLQDGLKDNSIGKITVSFNDGVVGEVAPKSANKKADRDAAAEKLYNLVNTQLDKLGDGDYVDFSVDYNLENKIITNQADAEAIVTKLNSLNEKTLIDIATKDTFGMVSKTQDSEGKNVAATKALKVKDVATFGLKSGGSEDTGYVVEMKAGAVEDKYGKVGDSTAGIAINLPSTGLEYAGKGTTIDFNKTLKVDVTGGSTPSAVAVSGFVTKDDTDLAKSGTINVRVINAKEESIDIDASSYHMSLEHHHHHH
- soluble on expression in E. coli: soluble

Sequence: MGSDKIHHHHHHMFDRYEAGETAVLVHIDFSDEERREDLVELQLLVESAGARSVGVITGSRRSPDRKFFIGSGKAEELAALVAATEANVVIFNHALSPAQERNLEQVCQCRVLDRTSLILDIFAQRARTHEGKLQVELAQLRHMSTRLVRGWTHLERQKGGIGLRGPGETQLETDRRLLRGRIKNINKRLERVDKQREQSRRARKRSDMPTVSLVGYTNAGKSTLFNALTSSDVYAADQLFATLDPTLRKLDLPDGAVILADTVGFIRHLPHDLVAAFKATLQETRQAELLLHIVDCADENMADNFEQVQSVLKEIDADEVMQLIVCNKIDLLEDVTPRIEYDDRGKPVRVWVSAHKRLGFDLLLKAITELIGEVIHEFTLRIPATAGHYLGQFYRLDAIQQKEYDDLGNCILSVRLSDADWRRLAKQSQGELETFIFDPSIEKAVC
- soluble on expression in E. coli: not soluble

Sequence: ELPKKRELCKFYITGFCARAENCPYMHGDFPCKLYHTTGNCINGDDCMFSHDPLTEETRELLDKMLADDAEAGAEDEKEVEELKK
- soluble on expression in E. coli: soluble
